From US20230414771A1, “PREPARATION AND USE OF IMMUNOSTIMULATORY CONJUGATED COMPLEXES FOR TARGETED DELIVERY AND ACTIVATION” (YAFEI SHANGHAI BIOLOGY MEDICINE SCIENCE & TECHNOLOGY CO., …, priority 2020, published 2023)
*1 amine or outer side, *2 acyl side, *3 side chain or, on linkers, in order; H or OH if unused. Where a SMILES comes first, the peptide text is derived from it. [ ]: non-standard residue; d: D form. The star is where a group is joined. ξ: configuration not given here. Doxorubicin(3'-N) = COc1cccc2c1C(=O)c1c(O)c3c(c(O)c1C2=O)C[C@@](O)(C(=O)CO)C[C@@H]3O[C@H]1C[C@H](N*)[C@H](O)[C@H](C)O1; Dovitinib(4-NH) = CN1CCN(c2ccc3nc(-c4c(N*)c5c(F)cccc5[nH]c4=O)[nH]c3c2)CC1; Thyronine(3,5,3'-I3) = N[C@@H](Cc1cc(I)c(Oc2ccc(O)c(I)c2)c(I)c1)C(=O)O; X9 = O=C([C@@H](Cc1cc(I)c(Oc2ccc(O)c(I)c2)c(I)c1)N[*:1])[*:2]; Hexanoyl(6-maleimido) = O=C1C=CC(=O)N1CCCCCC(=O)*; Resiquimod = CCOCc1nc2c(N*)nc3ccccc3c2n1CC(C)(C)O; Propanoyl(3-maleimido) = O=C1C=CC(=O)N1CCC(=O)*; X1 = O=C1C=CC(=O)N1CCOCCOCCOCCC(=O)*; PABC = O=C(OCc1ccc(N[*:1])cc1)[*:2]; PEG3 = NCCOCCOCCOCCC(=O)O; ξN = NC(=O)CC(N)C(=O)O

experiment: Water solubility test (observation and HPLC); format: physicochemical; conditions: thermodynamic from solid
Description: The compounds prepared in accordance with the examples of the disclosure and the reference compounds C1, C2, C3 and C4 were lyophilized (−70° C.).

Compound	solubility
C[C@@H](NC(=O)CCOCCOCCNC(=O)CCN1C(=O)C=CC1=O)C(=O)N[C@H](C)C(=O)N[C@H](CC(N)=O)C(=O)Nc1ccc(COC(=O)Nc2c(-c3nc4ccc(N5CCN(C)CC5)cc4[nH]3)c(=O)[nH]c3cccc(F)c23)cc1 [QHL-086 - Dovitinib]	> 20000 µg/mL
CCOCc1nc2c(NC(=O)OCc3ccc(NC(=O)[C@@H](CC(N)=O)NC(=O)[C@H](C)NC(=O)[C@H](C)NC(=O)CCOCCOCCOCCNC(=O)CCN4C(=O)C=CC4=O)cc3)nc3ccccc3c2n1CC(C)(C)O [QHL-089-Resiquimod]	> 10000 µg/mL
CC(C)C[C@H](NC(=O)[C@H](CC(N)=O)NC(=O)[C@H](C)NC(=O)[C@H](C)NC(=O)CCOCCOCCOCCNC(=O)CCN1C(=O)C=CC1=O)C(=O)Nc1c(-c2nc3ccc(N4CCN(C)CC4)cc3[nH]2)c(=O)[nH]c2cccc(F)c12 [QHL-090 - Dovitinib] ({Propanoyl(3-maleimido)-PEG3}-AANL-{Dovitinib(4-NH)})	> 10000 µg/mL
CCOCc1nc2c(NC(=O)OCc3ccc(NC(=O)[C@H](CC(N)=O)NC(=O)[C@H](C)NC(=O)[C@H](C)NC(=O)CCOCCOCCNC(=O)CCN4C(=O)C=CC4=O)cc3)nc3ccccc3c2n1CC(C)(C)O [QHL-086-Resiquimod]	> 10000 µg/mL
C[C@H](NC(=O)[C@H](C)NC(=O)[C@@H](CCC(=O)O)NC(=O)CCCCCN1C(=O)C=CC1=O)C(=O)N[C@@H](CC(N)=O)C(=O)N[C@H](Cc1cc(I)c(Oc2ccc(O)c(I)c2)c(I)c1)C(=O)O [QHL-161-T3] ({Hexanoyl(6-maleimido)}-[dE]AAN[X9]-OH)	> 10000 µg/mL
C[C@@H](NC(=O)CCOCCOCCNC(=O)CCN1C(=O)C=CC1=O)C(=O)N[C@H](C)C(=O)N[C@H](CC(N)=O)C(=O)Nc1ccc(COC(=O)N2CC(C)(C)c3ccc(NC(=O)c4cccnc4NCc4ccncc4)cc32)cc1 [QHL-089-Motesani]	> 20000 µg/mL
C[C@H](NC(=O)[C@H](C)NC(=O)[C@@H](CC(=O)O)NC(=O)CCCCCN1C(=O)C=CC1=O)C(=O)NC(CC(N)=O)C(=O)N[C@H](Cc1cc(I)c(Oc2ccc(O)c(I)c2)c(I)c1)C(=O)O (some centres unmarked) [QHL-162-T3] ({Hexanoyl(6-maleimido)}-[dD]AA[ξN][X9]-OH)	> 10000 µg/mL
CCOCc1nc2c(NC(=O)OCc3ccc(NC(=O)C(CC(N)=O)NC(=O)[C@H](C)NC(=O)[C@H](C)NC(=O)CCOCCOCCOCCOCCNC(=O)CCN4C(=O)C=CC4=O)cc3)nc3ccccc3c2n1CC(C)(C)O (some centres unmarked) [QHL-092-Resiquimod]	> 10000 µg/mL
C[C@@H](NC(=O)CCOCCOCCOCCNC(=O)CCN1C(=O)C=CC1=O)C(=O)N[C@H](C)C(=O)N[C@H](CC(N)=O)C(=O)Nc1ccc(COC(=O)Nc2c(-c3nc4ccc(N5CCN(C)CC5)cc4[nH]3)c(=O)[nH]c3cccc(F)c23)cc1 [QHL-089 - Dovitinib]	> 20000 µg/mL
COc1cccc2c1C(=O)c1c(O)c3c(c(O)c1C2=O)C[C@@](O)(C(=O)CO)C[C@@H]3O[C@H]1C[C@H](NC(=O)[C@H](CC(C)C)NC(=O)[C@H](CC(N)=O)NC(=O)[C@H](C)NC(=O)[C@H](C)NC(=O)[C@@H](NC(=O)CCCCCN2C(=O)C=CC2=O)C(C)C)[C@H](O)[C@H](C)O1 [QHL-123-DOX] ({Hexanoyl(6-maleimido)}-VAANL-{Doxorubicin(3'-N)})	> 2000 µg/mL
C[C@H](NC(=O)CCOCCOCCOCCN1C(=O)C=CC1=O)C(=O)N[C@@H](C)C(=O)N[C@H](CC(N)=O)C(=O)N[C@@H](Cc1cc(I)c(Oc2ccc(O)c(I)c2)c(I)c1)C(=O)O [QHL-154-T3] (X1-AA[dN][Thyronine(3,5,3'-I3)]-OH)	> 10000 µg/mL
CCOCc1nc2c(NC(=O)OCc3ccc(NC(=O)[C@H](CC(N)=O)NC(=O)[C@H](C)NC(=O)[C@H](C)NC(=O)CCOCCOCCOCCOCCOCCOCCNC(=O)CCN4C(=O)C=CC4=O)cc3)nc3ccccc3c2n1CC(C)(C)O [QHL-095-Resiquimod]	> 10000 µg/mL
CCOCc1nc2c(NC(=O)OCc3ccc(NC(=O)[C@H](CC(N)=O)NC(=O)[C@H](C)NC(=O)[C@H](C)NC(=O)[C@H](CCC(=O)O)NC(=O)CCCCCN4C(=O)C=CC4=O)cc3)nc3ccccc3c2n1CC(C)(C)O [QHL-116-Resiquimod] ({Hexanoyl(6-maleimido)}-EAAN[PABC]-Resiquimod)	> 10000 µg/mL
CCOCc1nc2c(NC(=O)OCc3ccc(NC(=O)[C@H](CC(N)=O)NC(=O)[C@H](C)NC(=O)[C@H](C)NC(=O)CCOCCOCCOCCOCCOCCOCCN4C(=O)C=CC4=O)cc3)nc3ccccc3c2n1CC(C)(C)O [QHL-008-Resiquimod]	> 10000 µg/mL
